In assay [1] the target is glycophorin A associated protein (GPA) on mouse red blood cells (mouse). Briefly: preloaded mouse RBCs injected in mice; RBC vs plasma radioactivity (in vivo).
Assay [2] shares this target. Briefly: 125I-labeled fusion on mouse RBCs, 1% hematocrit, saturation binding (FIG. 4C).
For assay [3], the target named is human red blood cells (human). Briefly: 125I-labeled fusion on human RBCs, 10% hematocrit, 1 h at 37° C, gamma counting.
Assay [4] addresses glycophorin A associated protein (GPA) on mouse red blood cells (mouse). The assay can be described thus: 125I-labeled fusion on mouse RBCs, 10% hematocrit, 1 h at 37° C, gamma counting.
For assay [5] the target is unchanged. The assay can be described thus: 125I-labeled fusion injected i.v. in mice; RBC vs plasma radioactivity in blood (in vivo).
Assay [6] shares this target. Briefly: 125I-labeled fusion at 40 µg/ml on mouse RBCs at ~50% hematocrit in PBS/BSA or heparinated plasma, 37° C, time course.

B1: Ter119scFv-mRNK fusion protein (protein)
chain: RSPWPGVPTSQVKLQESGGGLVQPGGSLKLSCVASGFTFRDHWMNWVRQAPGKTMEWIGDIRPDGSDTNYAPSVRNRFTISRDNARSILYLQMSNMRSDYTATYYCVRDSPTRAGLMDAWGQGASVTVLTGGGGSGGGGSGGGGSDIQMIQSPSVLSASVGDRVTLNCKASQNINKYLNWYQQKLGEAPKVLIYNTNNLQTGIPSRFSGSGSGTDFTLTISSLQPEDFATYFCFQHYTWPTFGGGTKLELKRASSSSGSSSSGAAAPKGKSEDCYVGKGVTYRGTHSLTTSQASCLPWNSIVLMGKSYTAWRTNSQALGLGRHNYCRNPDGDARPWCHVMKDRKLTWEYCDMSPCSTCGLRQYKRPQFRIKGGLYTDITSHPWQAPIFVAAAASPGERFLCGGVLISSCWVLSAAHCFLERFPPNHLKVVLGRTYRVVPGEEEQTFEIEKYIVHEEFDDDTYDNDIALLQLRSQSKQCAQESSSVGTACLPDPNLQLPDWTECELSGYGKHEASSPFFSDRLKEAHVRLYPSSRCTSQHLFNKTVTNNMLCAGDTRSGGNQDLHDACQGDSGGPLVCMINKQMTLTGIISWGLGCGQKDVPGVYTKVTNYLDWIHDNMKQ
modifications: 125I radiolabel in the binding assays
As a reminder, the Kd is the constant that tells how readily two partners part at equilibrium. Higher therefore signals weaker binding. As to B1, in assay [1], the percent of fusion in the bloodstream associated with RBCs (one hour) came out at 90 % ID and the percent of fusion in the bloodstream associated with RBCs (three hours) amounted to 75 % ID. Further, in assay [2], the Bmax (molecules/RBC) was determined as 80000 and the Kd is 77.9 nM. In assay [3], this molecule displayed a molecules/hRBC (molecules/hRBC) of 120. The molecule also registered a molecules/mRBC (molecules/mRBC) in assay [4] of 20000. Moreover, the percent associated with RBC in assay [5] is 90%. This molecule yielded a 50% saturation time in assay [6] of 30 min.

The values are drawn from patent publication US20100285015A1.
